Reference: patent EP0959894B1
Read-outs that look alike come from different tables or passages of the source.

Columns and labels:
[1] = target: urokinase-type plasminogen activator (u-PA) (UniProt P00749); test: ratio of second order rate constants for inhibition
[2] = target: tissue plasminogen activator (t-PA) (UniProt P00750); test: ratio of the rate constants toward t-PA and toward u-PA
[3] = target: tissue plasminogen activator (t-PA) (UniProt P00750); test: ratio of selectivities from second order rate constants for inhibition
[4] = target: tissue plasminogen activator (t-PA) (UniProt P00750); test: inhibition kinetics from residual enzyme activity (chromogenic assay), pseudo-first or second order conditions
[5] = target: urokinase-type plasminogen activator (u-PA) (UniProt P00749); test: as above
[6] = target: urokinase-type plasminogen activator (u-PA) (UniProt P00749); test: ratio of the rate constants toward u-PA and toward t-PA
[7] = target: urokinase-type plasminogen activator (u-PA) (UniProt P00749); test: ratio of selectivities from second order rate constants for inhibition
[8] = target: tissue plasminogen activator (t-PA) (UniProt P00750); test: inhibition kinetics from residual enzyme activity (chromogenic assay), pseudo-first or second order conditions; remark: listed apart in the source
[9] = target: urokinase-type plasminogen activator (u-PA) (UniProt P00749); test: as above; remark: listed apart in the source
[10] = target: urokinase-type plasminogen activator (u-PA) (UniProt P00749); test: ratio of the second order rate constants for inhibition

Sequence of tissue plasminogen activator (t-PA) (P00750 36-562 limits assumed): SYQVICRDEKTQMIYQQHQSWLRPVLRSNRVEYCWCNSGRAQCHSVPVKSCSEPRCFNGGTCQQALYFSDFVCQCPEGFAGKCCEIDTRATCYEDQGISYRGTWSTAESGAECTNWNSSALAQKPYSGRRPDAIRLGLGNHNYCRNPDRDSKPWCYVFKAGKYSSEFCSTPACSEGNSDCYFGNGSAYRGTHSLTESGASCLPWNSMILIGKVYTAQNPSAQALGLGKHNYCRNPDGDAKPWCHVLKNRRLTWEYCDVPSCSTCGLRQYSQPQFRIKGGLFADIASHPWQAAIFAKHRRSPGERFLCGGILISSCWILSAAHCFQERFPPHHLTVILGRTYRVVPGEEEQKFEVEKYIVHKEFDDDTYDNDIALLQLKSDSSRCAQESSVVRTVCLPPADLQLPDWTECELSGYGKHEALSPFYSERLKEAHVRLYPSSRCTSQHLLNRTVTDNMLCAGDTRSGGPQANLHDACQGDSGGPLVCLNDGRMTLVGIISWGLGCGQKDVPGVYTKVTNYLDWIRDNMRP

| Substance | fold reduction of activity against wild type PAI-1 [1] | t-PA/u-PA Selectivity [2] | fold reversal in specificity toward t-PA against wild type PAI-1 [3] | second order rate constant for inhibition [4] | second order rate constant for inhibition [5] | fold gain of t-PA selectivity against the P3 arginine variant of PAI-1 [3] | fold gain of t-PA/u-PA selectivity against wild-type PAI-1 [3] | t-PA/u-PA Selectivity (as headed; the value is the u-PA/t-PA ratio) [6] | fold gain of u-PA/t-PA selectivity against wild type PAI-1 [7] | second order rate constant for inhibition [8] | second order rate constant for inhibition [9] | fold specificity toward u-PA over t-PA [10] |
| --- | --- | --- | --- | --- | --- | --- | --- | --- | --- | --- | --- | --- |
| PAI-1/P3R (from UniProt P05121 24-402) | 190 fold | 14 | 170 fold | 1.4e+06 M⁻¹ s⁻¹ | 100000 M⁻¹ s⁻¹ | – | – | – | – | – | – | – |
| PAI-1/P4Q (from UniProt P05121 24-402) | – | 0.08 | – | 1.6e+06 M⁻¹ s⁻¹ | 1.9e+07 M⁻¹ s⁻¹ | – | – | – | – | – | – | – |
| PAI-1/P4Q,P3R (from UniProt P05121 24-402) | – | 48 | – | 1.4e+06 M⁻¹ s⁻¹ | 29000 M⁻¹ s⁻¹ | 3.5 fold | 600 fold | – | – | – | – | – |
| PAI-1/UK1 (from UniProt P05121 24-402) | – | – | – | – | – | – | – | 69 | 7 fold | 90000 M⁻¹ s⁻¹ | 6.2e+06 M⁻¹ s⁻¹ | – |
| Wild type PAI-1 (recombinant human plasminogen activator inhibitor type 1) (from UniProt P05121 24-402) | – | 0.08 | – | 1.6e+06 M⁻¹ s⁻¹ | – | – | – | 11 | – | 1.8e+06 M⁻¹ s⁻¹ | 1.9e+07 M⁻¹ s⁻¹ | 11.9 fold |
